B1: CPEB3 Ribozyme (parent)
chain: GGGGGCCACAGCAGAAGCGUUCACGUCGCGGCCCCUGUCAGAUUCUGGUGAAUCUGCGAAUUCUGCUGU

Variants of: B1
Test: self-cleavage, relative activity (ratio to wild type); higher = more cleavage; co-transcriptional

Row | Variant | self-cleavage
1 | U21G C39U | 0.61
2 | U21G C39A | 0.396
3 | U21G G31C | 0.181
4 | C22A U44C | 0.217
5 | C22A U44A | 0.184
6 | U20C U21G | 0.211
7 | U20C U21C | 0.197
8 | U20G U64G | 0.117
9 | U20G U64A | 0.152
10 | U20G C24A | 0.128
11 | U21C A59C | 0.351
12 | U20C C29G | 0.165
13 | U20A U43A | 0.152
14 | C22G A23C | 0.179
15 | C22G A23U | 0.24
16 | U20C U61G | 0.226
17 | U21G A23G | 0.549
18 | U20A C27A | 0.151
19 | U20C A51C | 0.259
20 | U20C A51U | 0.172
21 | U20C U62G | 0.278
22 | U20C U62A | 0.133
23 | C22A C54A | 0.0889
24 | U20A C33A | 0.166

Row | Variant | self-cleavage
25 | U20A C33U | 0.2
26 | U20A C33G | 0.192
27 | U21C C39G | 0.895
28 | U20G C27A | 0.105
29 | U20G C27G | 0.177
30 | C22G C57U | 0.148
31 | C22G C57A | 0.221
32 | U21A G48C | 1.01
33 | U20C C22A | 0.201
34 | U21A A42U | 0.941
35 | C22A A51C | 0.176
36 | C22A G30A | 0.167
37 | C22A A23U | 0.281
38 | C22A A23G | 0.198
39 | U20G U43G | 0.153
40 | U20A C35U | 0.124
41 | U20C A40C | 0.215
42 | U20C A40U | 0.227
43 | U20G C33U | 0.145
44 | U21C A60C | 0.406
45 | U20G C63A | 0.157
46 | U20G G50U | 0.239
47 | U21G C63U | 0.434
48 | U21G C63G | 0.158

Row | Variant | self-cleavage
49 | U21G G50C | 0.616
50 | U21G G50A | 0.488
51 | C22A U36C | 0.169
52 | U20C A42U | 0.271
53 | U20C A42C | 0.199
54 | U21G A42G | 0.558
55 | C22A C33G | 0.168
56 | C22A C57A | 0.174
57 | U21C G28A | 0.192
58 | U20A G48U | 0.104
59 | U20A G48C | 0.117
60 | U21A G50U | 0.971
61 | U21A A59U | 0.891
62 | U20G U61A | 0.207
63 | U20G G48C | 0.224
64 | U20G U26G | 0.123
65 | U20G U26A | 0.163
66 | U20G A59C | 0.1
67 | U21G G58A | 0.281
68 | U21A U64G | 0.898
69 | C22G A40G | 0.204
70 | C22G A40U | 0.105
71 | C22G A40C | 0.23
72 | G19U U69G | 0.819

Row | Variant | self-cleavage
73 | U21G A60C | 0.235
74 | U21G U64C | 0.254
75 | U21G U64A | 0.304
76 | U21G U64G | 0.295
77 | U21A U55G | 0.811
78 | U21A U55A | 0.916
79 | U20A U26A | 0.0885
80 | U21C U44G | 0.859
81 | U21C U44C | 0.824
82 | U21C U44A | 0.911
83 | U21G C54A | 0.341
84 | U21C U43C | 0.875
85 | U20C C27A | 0.17
86 | U20C C57A | 0.232
87 | U20C C57U | 0.194
88 | U21G U49A | 0.527
89 | U21G U49G | 0.486
90 | U20C G48C | 0.229
91 | U21C U64A | 0.706
92 | U21C C57G | 0.384
93 | U20C C24A | 0.191
94 | U20C C24G | 0.146
95 | U20C C24U | 0.18
96 | U20G U38G | 0.123

Row | Variant | self-cleavage
97 | U21G U36G | 0.232
98 | U21G U36C | 0.134
99 | U20G G68U | 0.183
100 | U20G C32G | 0.179
101 | U20C G37C | 0.0963
102 | U21C A42C | 0.853
103 | U20G U44A | 0.271
104 | U20G U44C | 0.199
105 | C22A U26A | 0.117
106 | U21G G56A | 0.774
107 | U21G G56C | 0.495
108 | C22A G58C | 0.184
109 | U20A G65A | 0.156
110 | U20G G58C | 0.099
111 | U20A G41U | 0.126
112 | U20A G41A | 0.166
113 | U21C U69A | 0.885
114 | U21C U69G | 0.933
115 | U21G A59G | 0.675
116 | U21G A59U | 0.219
117 | C22A U38C | 0.151
118 | U20A G37U | 0.169
119 | U21C U55A | 0.843
120 | U21C U55G | 0.723

Row | Variant | self-cleavage
121 | U20A C54A | 0.125
122 | C22A A52C | 0.173
123 | U21G C35U | 0.361
124 | U21G C35G | 0.225
125 | U21C G68C | 0.899
126 | U21C G68U | 1
127 | U21A C22U | 0.325
128 | U21C U26A | 0.216
129 | C22A G37A | 0.212
130 | U21C U61A | 0.538
131 | U20G G25C | 0.227
132 | U21A G30A | 0.866
133 | C22G C32U | 0.182
134 | C22G C29A | 0.258
135 | U21A G28U | 0.241
136 | U21C U53G | 0.724
137 | U20A G58C | 0.164
138 | C22A U67C | 0.21
139 | U21G C29A | 0.242
140 | U20C U36C | 0.159
141 | U20C U36G | 0.116
142 | U20C G30A | 0.17
143 | U21G U67C | 0.458
144 | U21G U67A | 0.549

Row | Variant | self-cleavage
145 | U21C A23G | 0.76
146 | U21A U43C | 0.909
147 | C22G G31A | 0.137
148 | C22G G31C | 0.0776
149 | U20C U53A | 0.135
150 | U20C U53G | 0.167
151 | U20G C34A | 0.223
152 | C22A A60U | 0.222
153 | C22A A60G | 0.279
154 | U20A G50A | 0.147
155 | U21A C29A | 0.686
156 | U20A A23U | 0.192
157 | U20A A23G | 0.041
158 | C22A C27U | 0.144
159 | C22A C27A | 0.158
160 | C22A C27G | 0.168
161 | U21C C22U | 0.268
162 | U21C C22G | 0.0423
163 | U21G U46C | 0.635
164 | U21C A51G | 0.914
165 | U20C U67C | 0.131
166 | U20A U38C | 0.107
167 | U20A U38A | 0.188

Reference: the RNAGym collection of RNA variant scans (doi:10.7554/elife.80360)
